B1: TPR t1 (parent)
chain: GACCAAUCUGCCCUCAGAGCUCGAGAACAUCUUCGGAUGCAGAGGAGGCAGGCUUCGGUGGCGCGAUAGCGCCAACGUCCUCAACCUCCAAUGCAUCCCACCACAUGAUGAUGCCUGAAGAGCCUUGGUUUUUUG

Variants of: B1
Assay: polymerase ribozyme fitness, log enrichment relative to wild type (log ratio); higher = more active; in vitro selection for triplet polymerase activity
In short: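 Fitness measures genotype enrichment against wild-type enrichment on a logarithmic scale, with inverse-variance-weighted averaging of replicates. The logarithm is base 2, and genotypes were kept only with ≥10 input reads and ≥1 read per output in Illumina sequencing. The sequenced libraries came from one triplicate in vitro selection round, including frozen incubation at −7 °C, of PCR-built, transcribed mutant libraries of each subunit of a heterodimeric triplet polymerase ribozyme.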

Row | Variant | polymerase ribozyme fitness (log ratio)
1 | A18U U67G C101G U116C | -5.12
2 | C20A C49U | -3.79
3 | G19U A75G | -3.56
4 | C20A C28A G45U A84U C104A G107U C124U | -5.96
5 | G19A C89A | -2.63
6 | G19C G60A G93A | -2.11
7 | G19U G93U | -4.25
8 | G19U U55C G61C | -4.04
9 | G19U G63C U92A | -5.54
10 | G19A A37C G61U G120C | -2.13
11 | A18U G77U | -2.27
12 | C20A C22U G42U G113U U132A | -3.71
13 | G19C A24U G48U G52U C64G U109A G110U | -7.39
14 | G19U A43G | -2.34
15 | G19U A43U | -3.24
16 | G19C A29U C79G U112C A119G | -4.42
17 | A18U G93C C97U G128U | -5.92
18 | A18U G71A G120A | -3.53
19 | A18U U38G C123A | -4.13
20 | G19U G44U | -4.75
21 | A18U C73U U96G C104U | -2.93
22 | A18U C85G G113C | -5.2
23 | C20A A121U | -0.837
24 | A18U C72U U78A | -2.59

Row | Variant | polymerase ribozyme fitness (log ratio)
25 | A18U C62G C82A C114A U131A G135A | -4.32
26 | G19A G69C G110C | -6.61
27 | G19A C22G A43C G71A C89A U125A | -6.8
28 | G19U U130G | -3.14
29 | C20A A41C G71A C82A | -5.71
30 | G19U C53G A91G | -3.77
31 | A18U G69U C115G | -0.333
32 | A18U G52C G61C U87C G120C | -4.57
33 | A18U C89U | -1.53
34 | A18U U78C C88U U112G | -2.16
35 | G19C C89A U125G | -2.33
36 | G19U C89U C115A | -6.23
37 | A18U G47U C101A U109A G113A U116A | -6.66
38 | G19U G63A G77U U109A C114U G117C | -6.78
39 | A18U C70U A121U | -1.34
40 | G19A G117A | -4.95
41 | G19U G51A G60C G120A | -6.42
42 | G19C G110C C114U | -5.66
43 | G19C G44A G61A U125G | -2.72
44 | A18U U21A A24G U55G | -3.96
45 | C20A A68G U78C C123U | -4.98
46 | G19C G52A A119U | -3.63
47 | G19U C20U | -2.46
48 | A18U U96A | -3.21

Row | Variant | polymerase ribozyme fitness (log ratio)
49 | G19A G51C | -5.83
50 | G19A G51A | -5.49
51 | A18U C56U C64A G69A U112C U129A | -5.64
52 | G19A C123U | -2.48
53 | G19A G47A | -4.12
54 | A18U G36A | -3.63
55 | A18U G36U | -3.48
56 | G19A U116G | -6.24
57 | C20A C62U | -2.95
58 | G19U G110U | -5.11
59 | G19C C22G C72U | -4.44
60 | G19A C70G G113U | -5.75
61 | C20A C28U A46C G113U C115A | -4.17
62 | A18U C72U | -2.03
63 | A18U U21G C79G G93C G107C A108U C123G C124U | -7.63
64 | G19U C89G | -4.36
65 | G19A U54C C73G C82G C114G G135A | -3.8
66 | A18U G35U G71A A108G C115U | -6.98
67 | A18U C28U G36U C70U C79G G120A C124A | -6.76
68 | G19A U78G C80U | -3.52
69 | A18U U125G | -3.41
70 | A18U C28U | -5.29
71 | G19A G42A | -3.26
72 | G19A G120A | -2.6

Row | Variant | polymerase ribozyme fitness (log ratio)
73 | C20A C53A C79U G110U | -4.5
74 | G19U G47U C49G C70U C86U U87C U109A C115U | -6.81
75 | G19A G61A | -2.53
76 | A18U G45A | -2.78
77 | G19U C53G U54A C124A G128A | -3.23
78 | G19C C62U U112G | -6.55
79 | A18U U38G C56U C114A G135U | -2.6
80 | A18U G48C G71U C82A | -5.32
81 | A18U C64U C97U U116C G120A | -4.84
82 | A18U C62U C64U A74C A90U A121C U129A | -6.59
83 | G19C C22U A46C G61U C114U | -4.53
84 | G19A G60A A95U | -3.51
85 | G19C G42U G45C C72A C79A C82G | -3.62
86 | G19A C49G C85U A111C | -2.99
87 | G19A A41U C53A G60C A121U | -5.24
88 | G19A G110U | -3.66
89 | G19A G110A | -2.58
90 | G19U C62G G71U | -3.71
91 | A18U C28A C85G A111U | -4.7
92 | G19C A37U A46C C72A C76U C82G C124A | -4.65
93 | G19A C62U U78G | -3.47
94 | A18U C62G | -4.86
95 | A18U C62U | -2.48
96 | G19U C20A C72G G77C A91C C94A U106A | -5.31

Row | Variant | polymerase ribozyme fitness (log ratio)
97 | A18U G71A G93U U131G | -5.74
98 | C20A C70A | -4.86
99 | G19U A46C G52C U54C U96C C114A | 0.227
100 | G19U U55G C114A U131A | 2.05
101 | G19U C76U | -4.25
102 | A18U G45A C73U | -2.84
103 | C20A A26G U33A | -5.24
104 | C20A A26G G63U C99A C104A | -6.09
105 | G19U G71U A84U | -4.08
106 | G19A G44C U96A G120C | -3.85
107 | A18U C49G C88A C101A C123U U126A | -4.99
108 | A18U G60A C88G A118U U130G | -3.95
109 | C20A A37C G47C A83U U133G | -4.54
110 | C20A C22U C49A U92A C115U | -7.22
111 | G19A C40U U112A | -0.444
112 | A18U C88A | -3.06
113 | G19C G120A | -1.56
114 | G19A A41U C56G U59A | -5.05
115 | A18U C62U A84C G120U G135U | -5.35
116 | A18U A121C | -0.0692
117 | G19U C94A A105C C114A A118U | -0.986
118 | G19A G60A U87A C114G | -3.18
119 | A18U G42A C53G G71C C85U C89A | -4.28
120 | A18U C40A | -3.76

Row | Variant | polymerase ribozyme fitness (log ratio)
121 | C20A A41U G61A C102A | -6.03
122 | G19A C22A G113C | -4.67
123 | A18U G63C C64U C97G G117A | -6.33
124 | A18U C79G G110A | -6
125 | C20A C56A C82U | -3.22
126 | C20A C40A C76G C124A | -2.76
127 | G19U C56U | -2.37
128 | C20A C56A C76A C82U | -4.8
129 | G19C C28U C34A C53G C64A C114U U126C | -6.21
130 | G19A G52A G113A G127A | -2.38
131 | G19U U59G U106G U112A | -2.43
132 | A18U G44A A46U G48C G61U C72U C98U | -5.97
133 | A18U C53A | -2.38
134 | A18U U92A | -4.67
135 | A18U C40U C94U | -3.46
136 | A18U G113U | -4.9
137 | G19A G60A C101A U106A A119U C123U | -5
138 | G19A A46C U125A | -3.96
139 | G19A G48U G63A U96G C101A G113U | -5.6
140 | G19U A24G U38C G61U G113A | -3.85
141 | A18U C70G C79A | -7.76
142 | C20A A43U G113C | -5.17
143 | C20A A46C A74G G93C A118G | -5.42
144 | G19A G35C C53G C114G | -6.59

Row | Variant | polymerase ribozyme fitness (log ratio)
145 | A18U G42A U130A | -3.41
146 | A18U C53U C124G | -0.337
147 | G19C A66C C114U U116C | -3.53
148 | A18U C64U | -2
149 | G19A A43U C53U C56A G71C | -5.18
150 | G19A C86G C101U | -4.15
151 | A18U C22G A66U U78C C82U | -6.51
152 | A18U C40U C72U U78G C123G G135C | -1.48
153 | A18U G44A C94A C114A | -3.45
154 | G19U G71A U78A | -4.64
155 | A18U C85A | -4.19
156 | G19A G71C | -3.41
157 | G19C C86A | -2.92
158 | C20A A50U | -4.4
159 | G19U G60A C79U G120C | -2.44
160 | C20A C64G U92C A121C | -6.25
161 | C20A C49A G63A U81A C104U G120C U133A G135U | -4.91
162 | C20A C22U U59G C82A A111U | -5.49
163 | A18U U32A C56A A105C G120C G122A C124A | -4.84
164 | G19U C40U G47U G61A U106A C123U | -6.98
165 | C20A C28A G36A C72G A90C G110U | -6.43
166 | A18U G44U C124U | -1.28
167 | G19U G69U G110C | -3.55

— the RNAGym collection of RNA variant scans (doi:10.1073/pnas.2313332121)
